For series [1], the target named is T1, NHTF (NHTF C-His) (UniProt Q7DDD9 1-106).
T1 sequence: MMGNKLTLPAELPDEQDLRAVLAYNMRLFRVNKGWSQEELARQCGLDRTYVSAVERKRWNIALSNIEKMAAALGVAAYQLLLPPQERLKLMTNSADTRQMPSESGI
Put plainly: EMSA.

Series [2] deals with the molecule itself. The series can be described thus: SEC. Background: In gel filtration, larger molecules generally elute earlier.
Series [3] concerns the molecule itself. The series can be described thus: SEC. The source holds these as a separate data set.
Series [4] addresses T1, NHTF (NHTF C-His). Put plainly: EMSA. This is another data set of the same source. (Mobility shift assays separate free from complexed probe on a gel.)

Where two headings read alike, the source gives them in different places.

B1: Specific 25-mer (dsDNA)
DNA 1: TATGTGAAGTAAAATCCGTAACAGC
DNA 2: GCTGTTACGGATTTTACTTCACATA
For B1, the binding result with NHTF (NHTF C-His) [1] is “binds”.

B2: NHTF 5'UTR fragment 3 (dsDNA)
DNA 1: CTTTTTTTTGGCTTTTATGTGAAGTAAAATCCGTAACAGC
DNA 2: GCTGTTACGGATTTTACTTCACATAAAAGCCAAAAAAAAG
Take B2: the binding result with NHTF (NHTF C-His) [1] is “binds”.

B3: C-terminal His6-tagged NHTF transcription factor (natural protein, N. meningitidis MC58)
chain: MMGNKLTLPAELPDEQDLRAVLAYNMRLFRVNKGWSQEELARQCGLDRTYVSAVERKRWNIALSNIEKMAAALGVAAYQLLLPPQERLKLMTNSADTRQMPSESGI
For B3, the “stoichiometry N” value in the series “SEC [2]” was determined as 2.

B4: NHTF 5'UTR fragment 1 (dsDNA)
DNA 1: TGTTTCCCAATCTGTCTTGATTTTATCTCTTTCCTC
DNA 2: GAGGAAAGAGATAAAATCAAGACAGATTGGGAAACA
For B4, the binding result with NHTF (NHTF C-His) [1] is listed as “no binding”.

B5: NHTF 5'UTR fragment 2 (dsDNA)
DNA 1: TTGATGTGTGTGTGTTTGGGTGTGGCTGCCGCCACCC
DNA 2: GGGTGGCGGCAGCCACACCCAAACACACACACATCAA
Take B5: the binding result in the series with NHTF (NHTF C-His) [1] is “no binding”.

B6: DMP19 (NMB0541), without any tag (natural protein, N. meningitidis MC58, UniProt Q9K0P4 1-165, looked up)
chain: MTALTLPEDIRQQEPSALLYTLVSAYLEHTAQTGDESLSCLSDDQHTLTAFCYLDSQVEEGGFVQLIASGYGEYIFRNPLADSLRRWKIKAVPKVLDKAKALYEQHGKTIETLADGGADIPSLRKQFPEFEEWDGAYYEAAEQDLPLLAEHIQSNWETFAHIGQA
In the case of B6, in the series “SEC [3]”, the “stoichiometry N” value was determined as 2.

B7: Nonspecific 25-mer (dsDNA)
DNA 1: ACCCCTTTTTTTTGGCTTTTATGTG
DNA 2: CACATAAAAGCCAAAAAAAAGGGGT
Turning to B7, the binding result with NHTF (NHTF C-His) [4] is recorded as “no binding”.

B8: NHTF 5'UTR fragment 4 (dsDNA)
DNA 1: AAATGCTTAACTTTAACCATTTATCTGGAAGCAA
DNA 2: TTGCTTCCAGATAAATGGTTAAAGTTAAGCATTT
Take B8: the binding result with NHTF (NHTF C-His) [1] was “no binding”.

B9: Specific (mutant) 25-mer (dsDNA)
DNA 1: TACCCGAAGTAAAATCCGTAACAGC
DNA 2: GCTGTTACGGATTTTACTTCGGGTA
Consider B9, for which the binding result with NHTF (NHTF C-His) [1] is listed as “no binding”.

Usually stoichiometry N stands for a count of units in the complex or per binding partner.

(Values after paper PMC3384305 (Nucleic Acids Research, 2012).)
